The supplement of paper PMC10567573

B1: KRT34 (parent)
chain: PTVDLNQVLNETRSQYEALVETNR
B2: ZNF8 (parent)
chain: VHVIGVEEPSVGASMLFDIREST

Variants of: B1
Assay: protein stability index of a GFP-peptide fusion (GPS, HEK-293T) (PSI 1-6); higher = more stable
Settings: c terminus: a fixed tail appended
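Further: lentivirally expressed fusions sorted by FACS into six bins by GFP to DsRed ratio, PSI derived from sequencing read proportions per bin multiplied by bin number.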

Variant	protein stability index
V3N	4.46
V3T	3.89
V3M	2.45
V3S	4.28
V3W	5.02
V3D	4.76
V3P	4.62
V3Y	2.83
V3C	4.07
V3K	2.76
V3H	3.8
V3E	4.03
V3F	3.65
V3Q	3.05
V3R	2.92
V3A	3.63
V3G	4.15
V3L	2.65
V3I	3.7
R13F	3.07
R13N	5.01
R13G	4.52
R13C	3.57
R13H	3.46
R13W	3.71

Variant	protein stability index
R13E	5.07
R13Q	3.97
R13L	3.34
R13K	3.31
R13V	3.42
R13S	4.67
R13T	4.27
R13D	5.18
R13Y	3.64
R13I	2.83
R13A	3.85
R13P	4.79
Q7T	2.75
Q7H	4
Q7V	2.37
Q7R	3.65
Q7E	3.25
Q7D	3.66
Q7Y	3.65
Q7C	3.95
Q7K	3.98
Q7L	4.08
Q7S	3.62
Q7N	3.92
Q7A	3.13

Variant	protein stability index
Q7P	4.79
Q7G	4.25
Q7W	3.08
Q7I	2.99
Q7F	3.61
Q7M	3.62
L5K	4.8
L5P	3.77
L5Y	2.77
L5V	2.86
L5W	3.3
L5S	4.13
L5D	4.67
L5A	2.51
L5I	2.24
L5T	4.8
L5E	4.61
L5H	3.8
L5M	4.24
L5Q	4.38
L5N	4.57
L5C	3.68
L5G	4.68
L5R	4.53
L5F	3.92

Variant	protein stability index
V8G	4.2
V8W	2.56
V8E	4.4
V8L	1.43
V8H	3.52
V8S	4.18
V8K	4.22
V8C	3.48
V8I	3.57
V8T	3.76
V8P	4.2
V8A	3.56
V8N	4.58
V8R	4.67
V8Q	4.3
V8D	4.64
V8Y	2.29
V8M	2.88
T2Y	1.65
T2R	3.66
T2E	2.78
T2F	1.89
T2P	3.01
T2W	1.4
T2H	3.38

Variant	protein stability index
T2Q	2.71
T2N	3.72
T2V	2.52
T2D	3.82
T2C	2.67
T2L	1.85
T2S	3.27
T2M	1.85
T2I	2.99
T2G	4.14
T2K	3.14
S14G	3.56
S14E	2.23
S14Y	3.33
S14W	2.74
S14F	3.3
S14I	2.44
S14K	2.47
S14R	2.15
S14V	2.82
S14L	2.12
S14Q	2.34
S14M	1.65
S14C	2.25
S14D	2.87

Variant	protein stability index
S14A	2.09
S14T	2.96
S14H	3.32
S14P	4.1
N10A	2.44
N10Q	2.5
N10F	2.63
N10E	2.41
N10M	2.49
N10T	2.75
N10R	3.21
N10V	3.21
N10C	2.82
N10D	3.74
N10S	3.46
N10I	2.47
N10G	4.35
N10H	3.19
N10Y	2.91
N10K	2.7
N10L	1.58
N10W	3.02
N10P	4.55
E11S	3.85
E11R	4.03

Variant	protein stability index
E11A	4.06
E11Q	3.93
E11C	3.91
E11K	3.79
E11L	3.36
E11P	4.1
E11F	3.22
E11V	4.44
E11N	3.69
E11I	3.42
E11T	3.78
E11W	3.15
E11D	3.81
E11G	4.05
E11H	4.18
E11Y	3.72
E11M	3.95
Q15K	3.89
Q15H	3.78
Q15G	4.19
Q15I	2.96
Q15C	2.94
Q15F	2.82
Q15D	5.05
Q15N	4.02

Variant	protein stability index
Q15E	4.16
Q15L	2.25
Q15M	2.35
Q15A	4
P1V	2.5
P1W	2.95
P1M	3.31
P1E	2.82
P1F	3.22
P1T	3.96
P1H	3.97
P1I	2.42
P1L	2.88
P1R	3.43
P1K	3.83
P1S	3.82
P1D	4.12
P1N	3.21
P1Q	3.77
P1A	3.41
P1Y	2.84
P1G	3.5
P1C	2.77
D4R	4.48
D4W	2.59

Variant	protein stability index
D4L	3.56
D4P	3.05
D4M	3.21
D4G	3.62
D4E	4.01
D4Q	4.34
D4T	3.5
D4I	3.58
D4C	2.97
D4K	3.94
D4N	4.38
D4A	4.21
D4Y	3.44
D4V	4.02
D4H	3.56
D4S	2.73
D4F	3.19
N6P	4.8
N6F	2.42
N6Y	1.71
N6S	3.33
N6C	2.51
N6K	2.98
N6A	2.48
N6W	2.5

Variant	protein stability index
N6Q	2.56
N6H	2.92
N6L	2.14
N6V	2
N6G	3.79
N6T	3.05
N6R	3.9
N6D	2.79
N6I	2.03
N6M	1.9
N6E	2.56
T12P	4.12
T12A	1.8
T12R	4.28
T12Q	2.21
T12S	3.54
T12C	3.49
T12E	4.27
T12V	3.04
T12G	4.39
T12K	4
T12F	2.4
T12H	1.75
T12N	4.03
T12I	1.84

Variant	protein stability index
T12D	5.22
L9D	5.55
L9P	5.34
L9E	4.52
L9A	4.09
L9Q	3.36
L9W	4.04
L9G	4.64
L9V	4.28
L9F	3.45
L9K	4.45
L9M	4.21
L9N	4.76
L9R	4.36
L9C	4.45
L9H	4.66
L9T	4.61
L9I	3.14
L9S	5.03
L9Y	3.61

Variants of: B2
Assay: as above
Settings: c terminus: native

Variant	protein stability index
E21L	2.64
E21S	1.76
E21Q	1.29
E21Y	2.4
L16S	2.83
L16K	2.64
V6C	1.96
V6E	2.99
E8Y	2.87
E8D	1.69
G12E	2.45
G12S	2.19
G12R	2.4
G12P	2.16
G12N	2.29
H2D	3.42
H2V	1.83
H2P	3.59
H2M	1.43
S10G	2.1
S10D	2.48
S10I	2.91

Variant	protein stability index
S10R	1.71
D18L	3
D18Y	2.55
D18N	2.48
S22R	1.92
I4Y	2.16
I4T	3.3
I4N	3.43
R20I	1.86
R20N	3.1
R20F	2.49
R20V	1.57
R20C	1.85
R20Q	2.36
V1R	2.82
V1K	3.52
E7R	1.33
E7A	1.69
S14M	2.31
S14C	1.54
S14V	3.14
G5T	2.24

Variant	protein stability index
G5C	2.82
G5H	1.6
M15S	2.78
F17N	3.33
F17T	2.68
F17L	2.03
F17M	2.52
F17R	3.08
F17K	3.4
P9T	2.12
P9E	2.44
V3G	3.42
V3S	3.42
T23C	1.76
A13P	2.51
A13K	2.2
I19V	2.38
I19N	3.23
I19P	3.1
I19Y	2.06
